Results: the Human Domainome abundance scans (Beltran et al. 2025)
± gives the uncertainty stated by the source.

B1: Triacylglycerol hydrolase DDHD2, residues 389 to 447; numbered along this chain, O94830 (parent)
chain: TLEEDLKKLQLSEFFDIFEKEKVDKEALALCTDRDLQEIGIPLGPRKKILNYFSTRKNS

Variants of: B1
Assay: abundance fitness (aPCA) (normalised: wild type 0, dead -1); higher = more abundant; growth selection in yeast, the domain comes from the species named
Settings: Homo sapiens

First: TLEEDLKKLQLSEFFDIFEKEKVDKEALALCTDRDLQEIGLPLGPRKKILNYFSTRKNS [I41L]
Second: TLEEDLKKLQLSEFFDIFAKEKVDKEALALCTDRDLQEIGIPLGPRKKILNYFSTRKNS [E19A]
The abundance fitness of the first is higher: 0.069 ± 0.062 for the first, -0.225 ± 0.069 for the second.

TLEEDLKKLQLSEFFDIFHKEKVDKEALALCTDRDLQEIGIPLGPRKKILNYFSTRKNS [E19H] and GLEEDLKKLQLSEFFDIFEKEKVDKEALALCTDRDLQEIGIPLGPRKKILNYFSTRKNS [T1G] are within error of each other in abundance fitness: -0.024 ± 0.12 for the first, 0.103 ± 0.13 for the second.

ILEEDLKKLQLSEFFDIFEKEKVDKEALALCTDRDLQEIGIPLGPRKKILNYFSTRKNS [T1I] and TLEEDLKKLQLSEFFDIFEKEKVDKEALALCTDRDLQEIGIPLGLRKKILNYFSTRKNS [P45L] are within error of each other in abundance fitness: -0.572 ± 0.21 for the first, -0.496 ± 0.072 for the second.

First: TLEEDLKKLQLSEFFDIFEKEKVDKEALALCTDRDLQEIGIPLGVRKKILNYFSTRKNS [P45V]
Second: TLEEDLKKLQLPEFFDIFEKEKVDKEALALCTDRDLQEIGIPLGPRKKILNYFSTRKNS [S12P]
The abundance fitness of the first is higher: 0.411 ± 0.063 for the first, -0.301 ± 0.066 for the second.

TLEEDLKKLQLLEFFDIFEKEKVDKEALALCTDRDLQEIGIPLGPRKKILNYFSTRKNS [S12L] and TLEEDLKKLQLWEFFDIFEKEKVDKEALALCTDRDLQEIGIPLGPRKKILNYFSTRKNS [S12W] are within error of each other in abundance fitness: -0.104 ± 0.054 for the first, -0.137 ± 0.075 for the second.

Compared with TLEEDLKKLQLSEFFDIFEKEKVDKEALALCTKRDLQEIGIPLGPRKKILNYFSTRKNS [D33K], TLEEDLKKLQLSEFFDIFEKEKVDKEALALCTGRDLQEIGIPLGPRKKILNYFSTRKNS [D33G] is higher in abundance fitness: -0.489 ± 0.1 for the first, -0.199 ± 0.069 for the second.

Compared with TLEEDLKKLQLSEFFDIFEKEKVDKEALALCTDCDLQEIGIPLGPRKKILNYFSTRKNS [R34C], TLEEDLKKLQLSEFFDIFEKEKVDKEALALCTDNDLQEIGIPLGPRKKILNYFSTRKNS [R34N] is higher in abundance fitness: 0.011 ± 0.093 for the first, 0.368 ± 0.089 for the second.

Going from TLEEDLKKLQLSEFFDIFEKEKVDKEALALCTDRDLQEIGIPLGPRKKELNYFSTRKNS [I49E] to TLEEDLKKLQLSEFFDIFEKEKVDKEALALCTDRDLQEIGIPLGPRKKTLNYFSTRKNS [I49T], the abundance fitness falls from -0.052 ± 0.093 to -0.301 ± 0.1.

Going from TLEEDLKKLQLSEFIDIFEKEKVDKEALALCTDRDLQEIGIPLGPRKKILNYFSTRKNS [F15I] to TLEEDLKKLQLSEFVDIFEKEKVDKEALALCTDRDLQEIGIPLGPRKKILNYFSTRKNS [F15V], the abundance fitness rises from -0.513 ± 0.23 to -0.097 ± 0.064.

TLEEDLKKLQLSEFFDIFEKEKVDKEALALCTDRDLQEIGIPLGPRKFILNYFSTRKNS [K48F] and TLEEDLKKLQLSEFFDIFEKEKVDKEALALCTDRDLQEIGIPLGPRKYILNYFSTRKNS [K48Y] are within error of each other in abundance fitness: -0.457 ± 0.13 for the first, -0.566 ± 0.16 for the second.

TLEEDLKKLQLSEFFDIFEKEKVDKEALALCTDRDLQEIGIPLGPRKKILNYFDTRKNS [S54D] and TLEEDLKKLQLSEFFDIFEKEKVDKEALALCTDRDLQEIGIPLGPRKKILNYFNTRKNS [S54N] are within error of each other in abundance fitness: -0.146 ± 0.095 for the first, -0.152 ± 0.1 for the second.

Compared with TLEEDLKKLQLSEFFDIFEKEKVDKEALALCTDRDLQEIGIPLGPRKKILNYFWTRKNS [S54W], TLEEDLKKLQLSEFFDIFEKEKVDKEALALCTDRDLQEIGIPLGPLKKILNYFSTRKNS [R46L] is lower in abundance fitness: -0.471 ± 0.09 for the first, -0.744 ± 0.088 for the second.

Compared with TLEEDLKKLQLSEFFDIFEKEKVDKEALALCTDRDLQEIGIPLGPRKKILNYFSTRKLS [N58L], TLEEDLKKLQLSEFFDIFEKEKVDKEALALCTDRDLQEIGIPLGPRKKILNYFSTRKES [N58E] is higher in abundance fitness: -0.116 ± 0.088 for the first, 0.078 ± 0.088 for the second.

TLEEDLKKLQLSEFFDIFEKEKVDKEALALCTDRDLQEIGIPLGPRKKILNYFSTRKHS [N58H] and TLEEDLKKLQLSEFFDIFEKEKVDKEALALCTDRDLQEHGIPLGPRKKILNYFSTRKNS [I39H] are within error of each other in abundance fitness: -0.377 ± 0.13 for the first, -0.341 ± 0.19 for the second.

Going from TLEEDLKKLQLSEFFDIFEKEKVDKEALALCTDRDLQEMGIPLGPRKKILNYFSTRKNS [I39M] to TLEEDLKKLQLSEFFDIFEKEKVDKEALALCTDRDLQEFGIPLGPRKKILNYFSTRKNS [I39F], the abundance fitness falls from 0.764 ± 0.072 to 0.448 ± 0.12.

Going from TLEEDLKKLQLSEFFDIFEKEKVDKEALALCTDRDLQECGIPLGPRKKILNYFSTRKNS [I39C] to TLEEDLKKLQLSEFFDIFEKCKVDKEALALCTDRDLQEIGIPLGPRKKILNYFSTRKNS [E21C], the abundance fitness rises from -0.411 ± 0.12 to 0.257 ± 0.098.

First: TLEEDLKKLQLSEFFDIFEKPKVDKEALALCTDRDLQEIGIPLGPRKKILNYFSTRKNS [E21P]
Second: TLEEDSKKLQLSEFFDIFEKEKVDKEALALCTDRDLQEIGIPLGPRKKILNYFSTRKNS [L6S]
The abundance fitness of the first is higher: -0.27 ± 0.099 for the first, -0.767 ± 0.13 for the second.

Compared with TLEEDGKKLQLSEFFDIFEKEKVDKEALALCTDRDLQEIGIPLGPRKKILNYFSTRKNS [L6G], TLEEDLKKLQLSEFFMIFEKEKVDKEALALCTDRDLQEIGIPLGPRKKILNYFSTRKNS [D16M] is higher in abundance fitness: -0.698 ± 0.088 for the first, -0.228 ± 0.091 for the second.

TLEEDLKKLQLSEFFDIFEKEKVDKEALALCTDRDLQEIGIPLGPRKKIDNYFSTRKNS [L50D] and TLEEDLKKLQLSEFFDIFEKEKVDKEALALCTDRDLQEIGIPLGPRKKIHNYFSTRKNS [L50H] are within error of each other in abundance fitness: 0.14 ± 0.11 for the first, -0.087 ± 0.14 for the second.

TLEEDLKKLQLSEFFDIFEQEKVDKEALALCTDRDLQEIGIPLGPRKKILNYFSTRKNS [K20Q] and TLEEDLKKLQLSEFFDIFELEKVDKEALALCTDRDLQEIGIPLGPRKKILNYFSTRKNS [K20L] are within error of each other in abundance fitness: -0.317 ± 0.11 for the first, -0.386 ± 0.069 for the second.

TLEEDLKKLQLSEFFDIFEKEKVQKEALALCTDRDLQEIGIPLGPRKKILNYFSTRKNS [D24Q] and TLEEDLKKLQLSEFFDIFEKEKVDKEALALCTDRDLQEIGIPLGPRKKILNYFSTDKNS [R56D] are within error of each other in abundance fitness: -0.044 ± 0.15 for the first, 0.05 ± 0.11 for the second.

TLEEDLKKLQLSEFFDIFEKEKVDKEALALCTDRDLQEIGIPLGPRKKILNYFSTSKNS [R56S] and TLEEDLKKLQLSEFFDIFEKEKVDKEALALCTDRDLQEIGIPLGPRKKILNYFSTLKNS [R56L] are within error of each other in abundance fitness: -0.027 ± 0.072 for the first, -0.086 ± 0.065 for the second.

Work on TLEEDLKKLQLSEFFDIFEKEKVDKEALALCTDRDLQEIGIPLGPRKKILNYGSTRKNS [F53G] yielded an abundance fitness of -0.213 ± 0.062.
